# From US20140363495A1
# How the values were obtained:
# [1] = molecular target: HLA-A2 molecules on T2A2 cells (human); experiment: flow cytometry, upregulation of HLA-A2 on T2A2 cells, peptide 25 µg/mL, negative control; conditions: remark: other sources report otherwise
# [2] = molecular target: HLA-A2 molecules on T2A2 cells (human); experiment: flow cytometry, upregulation of HLA-A2 on T2A2 cells, peptide 12.5 µg/mL, negative control; conditions: remark: other sources report otherwise
binder,measurement,setting,value
HLFGYSWYK [CAP-7],T2A2 Binding (MFI),[1],83.8 MFI
same,T2 Binding (MFI),[2],109 MFI
